# Assay results taken from US20130131320A1 (TOHOKU UNIVERSITY, published 2013).
# Changes are numbered by the printed parent chain.
# B1: h528Fv WT (other)
# VH: QVQLVQSGAEVKKPGASVKVSCKASGYTFTSYWMHWVRQAPGQGLEWMGNIYPGSGGTNYAEKFKNRVTMTRDTSISTAYMELSRLRSDDTAVYYCARSGGPYFFDYWGQGTLVTVSS
# VL: DIVMTQSPLSLPVTPGEPASISCRSSQNIVHNNGITYLEWYLQKPGQSPQLLIYKVSDRFSGVPDRFSGSGSGTDFTLKISRVEAEDVGVYYCFQGSHIPPTFGQGTKVEIKR
# notes: Fv fragment: VH and VL co-expressed in E. coli BL21; Purified by metal chelate chromatography; the tag is not described; also called wild type humanized Fv
# B2: h528Fv 5.98.0 (other)
# VH: B1 VH with Y52W, S55Q, N66S
# VL: B1 VL
# B3: h528Fv 5.0.0 (other)
# VH: B1 VH with Y52W
# VL: B1 VL
# B4: h528Fv 5.11.T (other)
# VH: B1 VH with Y52W, S55T, K65Q, N66Q, A97T
# VL: B1 VL
# B5: h528Fv 5.73.0 (other)
# VH: B1 VH with Y52W, S55N, K63Q, N66Q
# VL: B1 VL
# B6: h528Fv 5.12.0 (other)
# VH: B1 VH with Y52W, S55K, K65Q, N66K
# VL: B1 VL
# Target: T1, soluble EGFR (human epithelial cell growth factor receptor 1, Her1) (human, UniProt P00533 25-645, limits assumed)
# T1 construct: The metal chelate purification implies a His tag, but none is described; also called target antigen
# Assay: ITC, 50 uM Fv titrated into 5 uM soluble EGFR
# Procedure: (§1) The resulting mutants were then subjected to thermodynamic analysis by means of Isothermal Titration calorimeter. […] Binding enthalpy (ΔH) and binding coefficient (Ka) were calculated from the change of calorie during the above titration. Free Energy Change (ΔG) and Binding Entropy Change (ΔS) were then calculated from the above values.
Ka [M⁻¹],TΔS [kJ/mol],ΔG [kJ/mol],ΔH [kJ/mol],Binder
1.9e+07,-19.5,-41.5,-61.1,B1
5.05e+08,-26.9,-49.9,-76.8,B2
1.49e+08,-41.2,-46.7,-87.9,B3
5.24e+08,-33.8,-49.7,-83.5,B4
4.95e+08,-21.5,-49.8,-71.3,B5
4.42e+08,-20.4,-49.5,-69.9,B6

# Target: T1, soluble EGFR (human epithelial cell …)
# Assay: ITC; lower end tied to 5.0.0 by Table 4 (14.9 against 1.9)
# Procedure: as §1
row,fold increase of Ka over h528Fv WT [fold],Binder
1,8 to 33,B3
